Starred links: 1 amine or outer side, 2 acyl side, 3 side chain; linkers in the order of their positions; H or OH if unused. Non-standard residues stand in square brackets, D forms with d. Groups on a side chain read outwards from the residue. No end group written: not given here. *: point of attachment. C18 diacid = O=C(O)CCCCCCCCCCCCCCCCC(=O)*; γGlu = O=C(O)[C@H](CCC(=O)[*:2])N[*:1]; AEEA = NCCOCCOCC(=O)O; Aib = CC(C)(N)C(=O)O
Tests used:
Assay in all cases: cell-based or functional assay
[1] = target: T1, anti-target CRF1R receptor (UniProt P34998 24-415, limits assumed)
T1 sequence (looked up): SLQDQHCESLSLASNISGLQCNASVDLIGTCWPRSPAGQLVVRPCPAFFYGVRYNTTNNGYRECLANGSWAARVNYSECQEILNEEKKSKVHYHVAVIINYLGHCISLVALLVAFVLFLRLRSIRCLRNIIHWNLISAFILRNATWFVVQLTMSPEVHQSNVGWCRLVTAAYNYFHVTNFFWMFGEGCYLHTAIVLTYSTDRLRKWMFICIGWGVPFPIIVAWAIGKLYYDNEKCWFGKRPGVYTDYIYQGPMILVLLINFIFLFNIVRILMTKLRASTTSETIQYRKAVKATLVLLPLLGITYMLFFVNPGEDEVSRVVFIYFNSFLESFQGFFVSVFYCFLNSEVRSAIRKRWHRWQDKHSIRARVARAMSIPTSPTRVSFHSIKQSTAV

rat CRF2R α receptor = rat CRF2R α receptor (rat, UniProt P47866 20-411)
[2] = target: T2, endogenous human CRF2 (NCI-H82 cells) (human, UniProt Q13324 20-411)
T2 sequence (looked up): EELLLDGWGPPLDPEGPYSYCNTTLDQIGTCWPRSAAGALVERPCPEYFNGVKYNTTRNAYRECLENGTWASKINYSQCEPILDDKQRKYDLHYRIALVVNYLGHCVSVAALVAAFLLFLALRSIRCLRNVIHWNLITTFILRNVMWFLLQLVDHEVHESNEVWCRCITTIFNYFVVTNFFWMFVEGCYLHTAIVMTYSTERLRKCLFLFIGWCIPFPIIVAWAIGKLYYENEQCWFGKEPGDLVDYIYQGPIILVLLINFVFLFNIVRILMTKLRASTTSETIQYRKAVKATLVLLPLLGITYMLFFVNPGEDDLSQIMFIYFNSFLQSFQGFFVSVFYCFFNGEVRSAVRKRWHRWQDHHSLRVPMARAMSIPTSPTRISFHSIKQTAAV

B1: peptide of SEQ ID NO: 139 (peptide)
peptide: IVLSLD[dV]PIKLK([AEEA-AEEA-γGlu-C18 diacid])QILLKQERQKKQRQQAEKNKQILAQV-NH2
modifications: N-terminus assumed
SMILES: CC[C@H](C)[C@H](N)C(=O)N[C@H](C(=O)N[C@@H](CC(C)C)C(=O)N[C@@H](CO)C(=O)N[C@@H](CC(C)C)C(=O)N[C@@H](CC(=O)O)C(=O)N[C@@H](C(=O)N1CCC[C@H]1C(=O)N[C@H](C(=O)N[C@@H](CCCCN)C(=O)N[C@@H](CC(C)C)C(=O)N[C@@H](CCCCNC(=O)COCCOCCNC(=O)COCCOCCNC(=O)CC[C@H](NC(=O)CCCCCCCCCCCCCCCCC(=O)O)C(=O)O)C(=O)N[C@@H](CCC(N)=O)C(=O)N[C@H](C(=O)N[C@@H](CC(C)C)C(=O)N[C@@H](CC(C)C)C(=O)N[C@@H](CCCCN)C(=O)N[C@@H](CCC(N)=O)C(=O)N[C@@H](CCC(=O)O)C(=O)N[C@@H](CCCNC(=N)N)C(=O)N[C@@H](CCC(N)=O)C(=O)N[C@@H](CCCCN)C(=O)N[C@@H](CCCCN)C(=O)N[C@@H](CCC(N)=O)C(=O)N[C@@H](CCCNC(=N)N)C(=O)N[C@@H](CCC(N)=O)C(=O)N[C@@H](CCC(N)=O)C(=O)N[C@@H](C)C(=O)N[C@@H](CCC(=O)O)C(=O)N[C@@H](CCCCN)C(=O)N[C@@H](CC(N)=O)C(=O)N[C@@H](CCCCN)C(=O)N[C@@H](CCC(N)=O)C(=O)N[C@H](C(=O)N[C@@H](CC(C)C)C(=O)N[C@@H](C)C(=O)N[C@@H](CCC(N)=O)C(=O)N[C@H](C(N)=O)C(C)C)[C@@H](C)CC)[C@@H](C)CC)[C@@H](C)CC)C(C)C)C(C)C
EC50[nM] 0% HSA (cAMP, CRF1R-overexpression CHO cells) [1]: > 1000 nM
Emax (%) (cAMP, CRF1R-overexpression CHO cells) [1]: 37.6%
EC50 [nM], 0% HSA (cAMP, A7R5 cells) (rat CRF2R α receptor): 0.1 nM
EC50 [nM] (cAMP, NCI-H82 cells) [2]: 18 nM

B2: peptide of SEQ ID NO: 147 (peptide)
peptide: IVLSLD[dV]PIGLK([AEEA-AEEA-γGlu-C18 diacid])QILLKQERQKK[Aib]REQAETNKQILAQV-NH2
modifications: N-terminus assumed
SMILES: CC[C@H](C)[C@H](N)C(=O)N[C@H](C(=O)N[C@@H](CC(C)C)C(=O)N[C@@H](CO)C(=O)N[C@@H](CC(C)C)C(=O)N[C@@H](CC(=O)O)C(=O)N[C@@H](C(=O)N1CCC[C@H]1C(=O)N[C@H](C(=O)NCC(=O)N[C@@H](CC(C)C)C(=O)N[C@@H](CCCCNC(=O)COCCOCCNC(=O)COCCOCCNC(=O)CC[C@H](NC(=O)CCCCCCCCCCCCCCCCC(=O)O)C(=O)O)C(=O)N[C@@H](CCC(N)=O)C(=O)N[C@H](C(=O)N[C@@H](CC(C)C)C(=O)N[C@@H](CC(C)C)C(=O)N[C@@H](CCCCN)C(=O)N[C@@H](CCC(N)=O)C(=O)N[C@@H](CCC(=O)O)C(=O)N[C@@H](CCCNC(=N)N)C(=O)N[C@@H](CCC(N)=O)C(=O)N[C@@H](CCCCN)C(=O)N[C@@H](CCCCN)C(=O)NC(C)(C)C(=O)N[C@@H](CCCNC(=N)N)C(=O)N[C@@H](CCC(=O)O)C(=O)N[C@@H](CCC(N)=O)C(=O)N[C@@H](C)C(=O)N[C@@H](CCC(=O)O)C(=O)N[C@H](C(=O)N[C@@H](CC(N)=O)C(=O)N[C@@H](CCCCN)C(=O)N[C@@H](CCC(N)=O)C(=O)N[C@H](C(=O)N[C@@H](CC(C)C)C(=O)N[C@@H](C)C(=O)N[C@@H](CCC(N)=O)C(=O)N[C@H](C(N)=O)C(C)C)[C@@H](C)CC)[C@@H](C)O)[C@@H](C)CC)[C@@H](C)CC)C(C)C)C(C)C
EC50[nM] 0% HSA (cAMP, CRF1R-overexpression CHO cells) [1]: > 1000 nM
Emax (%) (cAMP, CRF1R-overexpression CHO cells) [1]: 4.54%
EC50 [nM], 0% HSA (cAMP, A7R5 cells) (rat CRF2R α receptor): 2.53 nM
EC50 [nM] (cAMP, NCI-H82 cells) [2]: 13 nM

B3: peptide of SEQ ID NO: 151 (peptide)
peptide: IVLSLD[dV]PIGLK([AEEA-AEEA-γGlu-C18 diacid])QILLKQERQKK[Aib]REQAEKNKRILERV-NH2
modifications: N-terminus assumed
SMILES: CC[C@H](C)[C@H](N)C(=O)N[C@H](C(=O)N[C@@H](CC(C)C)C(=O)N[C@@H](CO)C(=O)N[C@@H](CC(C)C)C(=O)N[C@@H](CC(=O)O)C(=O)N[C@@H](C(=O)N1CCC[C@H]1C(=O)N[C@H](C(=O)NCC(=O)N[C@@H](CC(C)C)C(=O)N[C@@H](CCCCNC(=O)COCCOCCNC(=O)COCCOCCNC(=O)CC[C@H](NC(=O)CCCCCCCCCCCCCCCCC(=O)O)C(=O)O)C(=O)N[C@@H](CCC(N)=O)C(=O)N[C@H](C(=O)N[C@@H](CC(C)C)C(=O)N[C@@H](CC(C)C)C(=O)N[C@@H](CCCCN)C(=O)N[C@@H](CCC(N)=O)C(=O)N[C@@H](CCC(=O)O)C(=O)N[C@@H](CCCNC(=N)N)C(=O)N[C@@H](CCC(N)=O)C(=O)N[C@@H](CCCCN)C(=O)N[C@@H](CCCCN)C(=O)NC(C)(C)C(=O)N[C@@H](CCCNC(=N)N)C(=O)N[C@@H](CCC(=O)O)C(=O)N[C@@H](CCC(N)=O)C(=O)N[C@@H](C)C(=O)N[C@@H](CCC(=O)O)C(=O)N[C@@H](CCCCN)C(=O)N[C@@H](CC(N)=O)C(=O)N[C@@H](CCCCN)C(=O)N[C@@H](CCCNC(=N)N)C(=O)N[C@H](C(=O)N[C@@H](CC(C)C)C(=O)N[C@@H](CCC(=O)O)C(=O)N[C@@H](CCCNC(=N)N)C(=O)N[C@H](C(N)=O)C(C)C)[C@@H](C)CC)[C@@H](C)CC)[C@@H](C)CC)C(C)C)C(C)C
EC50[nM] 0% HSA (cAMP, CRF1R-overexpression CHO cells) [1]: > 1000 nM
Emax (%) (cAMP, CRF1R-overexpression CHO cells) [1]: 9.07%
EC50 [nM], 0% HSA (cAMP, A7R5 cells) (rat CRF2R α receptor): 0.49 nM
EC50 [nM] (cAMP, NCI-H82 cells) [2]: 7.4 nM

B4: peptide of SEQ ID NO: 138 (peptide)
peptide: IVLSLD[dV]PIKLK([AEEA-AEEA-γGlu-C18 diacid])QILLKQERQKKQREKAEKNKQILAQV-NH2
modifications: N-terminus assumed
SMILES: CC[C@H](C)[C@H](N)C(=O)N[C@H](C(=O)N[C@@H](CC(C)C)C(=O)N[C@@H](CO)C(=O)N[C@@H](CC(C)C)C(=O)N[C@@H](CC(=O)O)C(=O)N[C@@H](C(=O)N1CCC[C@H]1C(=O)N[C@H](C(=O)N[C@@H](CCCCN)C(=O)N[C@@H](CC(C)C)C(=O)N[C@@H](CCCCNC(=O)COCCOCCNC(=O)COCCOCCNC(=O)CC[C@H](NC(=O)CCCCCCCCCCCCCCCCC(=O)O)C(=O)O)C(=O)N[C@@H](CCC(N)=O)C(=O)N[C@H](C(=O)N[C@@H](CC(C)C)C(=O)N[C@@H](CC(C)C)C(=O)N[C@@H](CCCCN)C(=O)N[C@@H](CCC(N)=O)C(=O)N[C@@H](CCC(=O)O)C(=O)N[C@@H](CCCNC(=N)N)C(=O)N[C@@H](CCC(N)=O)C(=O)N[C@@H](CCCCN)C(=O)N[C@@H](CCCCN)C(=O)N[C@@H](CCC(N)=O)C(=O)N[C@@H](CCCNC(=N)N)C(=O)N[C@@H](CCC(=O)O)C(=O)N[C@@H](CCCCN)C(=O)N[C@@H](C)C(=O)N[C@@H](CCC(=O)O)C(=O)N[C@@H](CCCCN)C(=O)N[C@@H](CC(N)=O)C(=O)N[C@@H](CCCCN)C(=O)N[C@@H](CCC(N)=O)C(=O)N[C@H](C(=O)N[C@@H](CC(C)C)C(=O)N[C@@H](C)C(=O)N[C@@H](CCC(N)=O)C(=O)N[C@H](C(N)=O)C(C)C)[C@@H](C)CC)[C@@H](C)CC)[C@@H](C)CC)C(C)C)C(C)C
EC50[nM] 0% HSA (cAMP, CRF1R-overexpression CHO cells) [1]: > 1000 nM
Emax (%) (cAMP, CRF1R-overexpression CHO cells) [1]: 4.38%
EC50 [nM], 0% HSA (cAMP, A7R5 cells) (rat CRF2R α receptor): 0.26 nM
EC50 [nM] (cAMP, NCI-H82 cells) [2]: 8.4 nM

Reference: patent US12679878B2, “CRF2 receptor agonists and their use in therapy” (SANOFI, priority 2020, dated 2026)
